Assay results from patent publication US20150329614A1 (Novartis, published 2015).

Molecular target: T1, rec. human IGF-1R (R&D Systems, 391-GR) (human, UniProt P08069 31-932)
T1 construct: Bought soluble protein, used as the analyte in SPR; also called rhIGF1R; recombinant human IGF-1R
Test: SPR (Biacore T200), ligand immobilised on CM5 chip, rec. human IGF-1R as analyte, 1:1 model
Experimental: The binding properties were characterized by SPR using a Biacore T200 instrument at 25° C. […] The analyte concentration ranges were adapted to the individual interaction and ranged from 1000-3.9 nM (IGF-1R). […] Kinetic rate constants and KD were calculated by fitting double-referenced sensorgrams to a 1:1 binding model.
A direct binding assay was performed. […] The resulting sensorgrams were fitted to a 1:1 interaction model to calculate the equilibrium dissociation constants (KD).

T1 sequence (P08069 31-932 limits assumed): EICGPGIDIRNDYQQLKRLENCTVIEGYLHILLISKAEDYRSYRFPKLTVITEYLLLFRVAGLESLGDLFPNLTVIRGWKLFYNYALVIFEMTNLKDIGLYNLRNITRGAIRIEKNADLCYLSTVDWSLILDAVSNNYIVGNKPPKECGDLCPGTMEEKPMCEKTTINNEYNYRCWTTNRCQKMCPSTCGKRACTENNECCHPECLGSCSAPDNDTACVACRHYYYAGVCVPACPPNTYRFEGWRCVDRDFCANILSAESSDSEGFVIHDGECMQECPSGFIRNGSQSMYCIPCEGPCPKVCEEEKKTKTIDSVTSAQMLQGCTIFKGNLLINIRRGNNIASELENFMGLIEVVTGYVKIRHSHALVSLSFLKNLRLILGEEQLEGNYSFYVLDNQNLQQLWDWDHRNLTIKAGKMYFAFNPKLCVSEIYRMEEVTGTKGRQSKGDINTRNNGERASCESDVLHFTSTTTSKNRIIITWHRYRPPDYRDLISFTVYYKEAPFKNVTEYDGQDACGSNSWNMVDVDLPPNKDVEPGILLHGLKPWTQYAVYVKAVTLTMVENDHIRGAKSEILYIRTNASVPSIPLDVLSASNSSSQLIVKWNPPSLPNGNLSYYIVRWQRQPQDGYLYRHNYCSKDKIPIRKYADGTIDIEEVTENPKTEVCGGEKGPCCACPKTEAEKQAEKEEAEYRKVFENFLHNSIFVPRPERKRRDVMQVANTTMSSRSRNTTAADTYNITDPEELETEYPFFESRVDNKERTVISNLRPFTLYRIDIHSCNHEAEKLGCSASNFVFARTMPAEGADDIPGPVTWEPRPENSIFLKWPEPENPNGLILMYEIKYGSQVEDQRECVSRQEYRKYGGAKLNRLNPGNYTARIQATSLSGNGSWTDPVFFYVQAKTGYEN

binding result: binds
B1: hIGF-1-Ea-Fc_mut 13/2_A (Fc fusion)
chain: TLCGAELVDALQFVCGDRGFYFNKPTGYGSSSQAAPQTSIVDECCFRSCDLRRLEMYCAPLKPAVQAQQHTDMPKTQKEVHLKNASRGSAGNKNYQMCPPCPAPEAAGGPSVFLFPPKPKDTLMISRTPEVTCVVVDVSHEDPEVKFNWYVDGVEVHNAKTKPREEQYNSTYRVVSVLTVLHQDWLNGKEYKCKVSNKALPAPIEKTISKAKGQPREPQVYTLPPSREEMTKNQVSLTCLVKGFYPSDIAVEWESNGQPENNYKTTPPVLDSDGSFFLYSKLTVDKSRWQQGNVFSCSVMHEALHNHYTQKSLSLSPGK
notes: Modified human IGF-1-Ea precursor joined by hinge 1 to a hIgG1 LALA Fc
